The values below come from PMC2822742.

In the experiment the target is RBPJκ in Raji cell extract (human (endogenous in Raji)) (UniProt Q06330). Description: native gel or EMSA. For orientation: In EMSA bound probe runs differently from free probe, usually more slowly.
Sequence of UniProt Q06330 (Q06330 whole entry): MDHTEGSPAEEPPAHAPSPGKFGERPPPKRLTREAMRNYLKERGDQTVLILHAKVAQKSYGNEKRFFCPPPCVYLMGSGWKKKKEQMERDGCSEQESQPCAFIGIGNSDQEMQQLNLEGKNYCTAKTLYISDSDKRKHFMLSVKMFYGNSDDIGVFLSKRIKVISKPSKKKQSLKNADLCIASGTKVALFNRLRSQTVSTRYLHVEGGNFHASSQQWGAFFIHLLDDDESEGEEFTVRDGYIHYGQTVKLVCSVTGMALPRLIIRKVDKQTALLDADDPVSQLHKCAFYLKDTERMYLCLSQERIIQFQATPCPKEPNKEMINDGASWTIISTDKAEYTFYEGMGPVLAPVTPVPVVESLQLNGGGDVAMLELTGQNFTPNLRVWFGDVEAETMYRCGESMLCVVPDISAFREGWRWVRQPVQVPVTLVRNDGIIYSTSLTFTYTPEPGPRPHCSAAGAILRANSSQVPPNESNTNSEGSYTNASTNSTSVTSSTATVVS

For “EBNA2 in Raji cell extract (from UniProt P12978 1-487) (natural protein)”, the decrease in EMSA signal intensity, AdOx-treated against untreated extract lay within 30 to 67%.
